According to paper PMC7866087, “Evaluation of Computationally Designed Peptides against TWEAK, a Cytokine of the Tumour Necrosis Factor Ligand Family” (International Journal of Molecular Sciences, 2021):

What was measured:
[1] = tested on: TWEAK-Fn14 signalling pathway, BRV5 cells; experiment: Cell-based screening of pooled peptides, gene expression microarray in TWEAK-stimulated BRV5 cells; parameters: species or system human; settings: 6 h; for BIRC2 expression Z-Score / HSP90B1 expression Z-Score / IL6 expression Z-Score / JUN expression Z-Score / MAP4K4 expression Z-Score / MAPK14 expression Z-Score / NFKB2 expression Z-Score / TNFRSF12A expression Z-Score / TRAF2 expression Z-Score: BRV5 + TWEAK, normalized to NARS2
Experimental: To optimize resources and rationalize the analysis, we ran the screening by pooling the 50 peptides into six groups, i.e., Pool 1 to 6, containing […] peptides each and displaying similar MW (Supplementary Materials Table S1). We monitored the activity of pooled peptides on TWEAK-Fn14 signalling pathways following the design described in Material and Methods. BRV5 cells were cultured in the presence or absence of TWEAK and treated with peptides at different time points.
As a preliminary study, we performed an experiment with 435-P and BRV5 cells to assess the effect on the level of expression on the selected genes in cultures with or without TWEAK (Supplementary Materials Figure S2A). Negative controls without pool 1 peptides were included in the protocol to avoid unspecific biases in the inhibition ratio. To achieve optimal conditions to measure peptide activity, preventing peptide degradation in the culture medium, the effect of peptides was evaluated by priming cultures with peptide every hour (0–5 h), every two hours (0, 2, and 4 h) and every three hours (0 and 3 h). In these experiments, the housekeeping gene NARS2 was used to normalize gene expression.
Three different cell lines were used in this study: BRV5, MDA-MB 435 (435-P), and HT29. The BRV5 is a highly metastatic brain cell line, obtained in one of our laboratories by primary culture from a brain of a nude mouse inoculated with human 435-Br1 brain metastatic cells, as previously described and used as a model to test the peptides in cell cultures. […] The triple negative 435-P cell line is a useful human breast cancer model that expresses both epithelial and melanocytic markers, and was included as the parental cell from which 435-Br1 metastatic variant was initially originated (both cell lines kindly provided by Dr Fabra at IDIBELL Institute, Hospitalet de Llobregat, Spain). Finally, HT29 human colon carcinoma cells obtained from the European Type Culture Collection (ECACC 91072201) were used as a positive control of TWEAK dependent Fn14 over-expressing cells to evaluate TWEAK-Fn14 axis of brain metastatic variants.
Appropriate cell culture conditions were established as the controls needed in the expression of genes with and without peptides and with and without TWEAK activation, both as pools and individually (see Supplementary Materials Figure S2). The protocol started with the seeding of 125,000 cells/well in 500 µL of culture media supplemented with 10% fetal bovine serum (CM+FBS10%) in 24-well dishes for 24 h before removing FBS (CM-FBS). After overnight starvation in CM-FBS culture, different peptide treatment conditions (at final concentration of 450 µM) were established in the presence or absence of TWEAK (25 ng/mL final concentration) (Peprotech EC, Ltd., London, UK). Some cells were treated with peptides at a single, unique, initial dose (time 0) while other were treated with repeated doses to account for the effect cell-culture degradation. These include a repeated treatment every hour (i.e., […]), every two hours (time 0, 2, and 4) and every three hours (time 0 and 3)—see Supplementary Materials Figure S2 for diagrammatic depiction. At time 6 (after six hours) cells were lysed and RNA extracted for transcriptomic analyses (see next). Cell were culture for six hours as this was the time needed to achieve the highest upregulation of the TWEAK-Fn14 axis upon TWEAK treatment as shown in previous time-course RT-PCR experiments (see Figure 2).
RNA from cells was extracted 6 h after treatments by direct lysis on the well. The RNeasy Micro kit (Qiagen, Hilden, Germany) was used to isolate total RNA from cell lysate following manufacturer’s protocols including an additional step of digestion with DNase I (Qiagen, Hilden, Germany). Total RNA concentration was measured in a NanoDrop 1000 spectrophotometer (Thermo Scientific, Waltham, MA, USA). […]

[2] = tested on: HT29 cells, NIK expression; experiment: Time-course RT-PCR of NIK (MAP4K4), HT29; format: cell-based, human; settings: TWEAK, 6 to 24 h
[3] = tested on: BRV5 cells, NIK expression; experiment: Time-course RT-PCR of NIK (MAP4K4), BRV5; format: cell-based, human; settings: TWEAK, 6 to 24 h
Description: The final aspect to consider in the characterization of BRV5 cells prior to the screening of peptides was to assess when the signalling pathway mediated by TWEAK-Fn14 will be at its peak of activity. To that end, we monitored the level of expression of the primary kinase NIK (MAP4K4) at different time points. It has been reported that transcriptional activation of Fn14 would be operated mainly by the NF-κB non-canonical pathway, through inducing the primary kinase NIK (MAP4K4) that phosphorylates IKKα [26]. Thus, we assessed the level of expression of NIK from 6 to 24 h after cells were treated with TWEAK in a time-course RT-PCR (Figure 2). […] From these experiments we concluded that TWEAK-Fn14 pathway is mainly activated at 6 h after treating cells, and thus we designed out experiments to check the inhibitory ability of the peptides at this specific time point.
Figure 2 NIK activation in brain metastatic cells. Metastatic cells were primed with TWEAK in a time-course RT-PCR experiment. […] Bars and error bars represent the average and standard deviation as calculated from three replicates respectively.

[4] = pools, BRV5 + TWEAK 25 ng/mL, 450 µM every hour

B1: tumour necrosis factor-like weak inducer of apoptosis (protein, UniProt O43508 94-249, looked up)
Tumor necrosis factor ligand …: SAPKGRKTRARRAIAAHYEVHPRPGQDGAQAGVDGTVSGWEEARINSSSPLRYNRQIGEFIVTRAGLYYLYCQVHFDEGKAVYLKLDLLVDGVLALRCLEEFSATAASSLGPQLRLCQVSGLLALRPGSSLRIRTLPWAHLKAAPFLTYFGLFQVH
- regulation of probe genes by pooled peptides ([1]; BRV5 + TWEAK 25 ng/mL, peptides 450 µM every hour, versus T): higher level of expression overall when compared to untreated and unstimulated cells
- downstream activation of MAP4K4 (NIK), TRAF2, and BIRC2 (IAP2) ([1]; TWEAK, BRV5): occurred at 6 h in BRV5 cells
- BIRC2 mRNA expression (normalized to NARS2) [1, 4]: 1.448
- HSP90B1 mRNA expression (normalized to NARS2) [1, 4]: 8.392
- IL6 mRNA expression (normalized to NARS2) [1, 4]: 0.0007818
- JUN mRNA expression (normalized to NARS2) [1, 4]: 0.04566
- MAP4K4 mRNA expression (normalized to NARS2) [1, 4]: 0.7707
- MAPK14 mRNA expression (normalized to NARS2) [1, 4]: 0.5877
- NFKB2 mRNA expression (normalized to NARS2) [1, 4]: 0.193
- TNFRSF12A mRNA expression (normalized to NARS2) [1, 4]: 0.06934
- TRAF2 mRNA expression (normalized to NARS2) [1, 4]: 0.0999
- BIRC2 expression Z-Score ([1]; pools): 1.233
- HSP90B1 expression Z-Score ([1]; pools): -0.5008
- IL6 expression Z-Score ([1]; pools): -1.234
- JUN expression Z-Score ([1]; pools): -1.012
- MAP4K4 expression Z-Score ([1]; pools): -0.5276
- MAPK14 expression Z-Score ([1]; pools): 0.2377
- NFKB2 expression Z-Score ([1]; pools): -0.03742
- TNFRSF12A expression Z-Score ([1]; pools): -0.4905
- TRAF2 expression Z-Score ([1]; pools): 1.245
- BIRC2 expression Z-Score ([1]; pools, listed as T): 1.2334
- HSP90B1 expression Z-Score ([1]; pools, listed as T): -0.5008
- IL6 expression Z-Score ([1]; pools, listed as T): -1.2337
- JUN expression Z-Score ([1]; pools, listed as T): -1.0121
- MAP4K4 expression Z-Score ([1]; pools, listed as T): -0.5276
- MAPK14 expression Z-Score ([1]; pools, listed as T): 0.2377
- NFKB2 expression Z-Score ([1]; pools, listed as T): -0.0374
- TNFRSF12A expression Z-Score ([1]; pools, listed as T): -0.4905
- TRAF2 expression Z-Score ([1]; pools, listed as T): 1.2452
- NIK expression [2]: highest NIK expression, occurred 6 h after
- NIK expression [3]: increased in TWEAK stimulated BRV5 cells after 6 h of treatment, decreasing at 12 h and partially recovered at 24 h
